Data on 120 sequences can be found in the supplement of paper PMC10126150.

± gives the standard deviation of the averaged measurements.
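Also: ATP exposure 15 min at 22 °C before imaging.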

For the data set, the system named is ATP. Description: switch fluorescence ratio, 500 uM ATP over buffer (Cy3 cluster intensity, sum of 5 cycles each) (fold (ratio)); higher = stronger signal-on switching upon ATP binding; sequences stand for … in TCGTCGGCAGCGTCAGATGTGTATAAGAGACAGTTTTTTTTTTTTTTTTTTTTTTTTT…TC. The settings on record: aptamer strand: ATP DNA aptamer (quencher-CACCTGGGGGAGTATTGCGGAGGAAGG + anchor), 100 nM annealed; ATP concentration: 500 uM. The essentials: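 Cy3-labelled switching-strand clusters on a modified Illumina MiSeq flow-cell were annealed to 100 nM quencher-labelled ATP aptamer, imaged in selection buffer, then imaged after 15 min with 500 uM ATP at 22 °C. Five buffer/ATP cycles ran, with NaOH stripping and re-annealing between them. The fluorescence ratio is summed target-cycle over summed buffer-cycle Cy3 intensity per cluster, averaged per switch-domain sequence. Clusters outside 100-1000 RFU were excluded.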
As for GTAGTTCGCC, the switch fluorescence ratio was 1.02 ± 0.023.

Take TAAGTTTGTT: the switch fluorescence ratio is 0.997 ± 0.011.

As to GCTTTTATCA, the switch fluorescence ratio turned out to be 0.978 ± 0.01.

As for TGGGTTTGTG, the switch fluorescence ratio came out at 0.996 ± 0.033.

For TTGGGTCCTT, the switch fluorescence ratio came out at 0.993 ± 0.026.

TCCATAGTCG: the switch fluorescence ratio turned out to be 1.03 ± 0.014.

In the case of CGTTGCGAAA, the switch fluorescence ratio turned out to be 1.02 ± 0.031.

In the case of CATGGGGTTT, the switch fluorescence ratio worked out at 1.01 ± 0.018.

Regarding TTTTTATGCT, the switch fluorescence ratio stood at 0.99 ± 0.035.

GTGCGGCCAA: the switch fluorescence ratio was determined as 1.02 ± 0.044.

For the sequence AAGGGCTGCA, the switch fluorescence ratio stood at 1.032 ± 0.0052.

With GCGTTTTCGG, the switch fluorescence ratio was determined as 1.02 ± 0.039.

Consider CAGCTGAGGC, for which the switch fluorescence ratio worked out at 0.976 ± 0.038.

Turning to TTACGGCCGA, the switch fluorescence ratio amounted to 1.02 ± 0.026.

For GAGTGCGGCT, the switch fluorescence ratio turned out to be 1.07 ± 0.16.

On to TAAAGGACGG, for which the switch fluorescence ratio was 1.01 ± 0.038.

GAGGTAATGT: the switch fluorescence ratio amounted to 1.039 ± 0.0025.

For the sequence TTTTTTCTGT, the switch fluorescence ratio stood at 1.01 ± 0.029.

As to AATATCGGGT, the switch fluorescence ratio was 0.97 ± 0.019.

With CATAGATAGG, the switch fluorescence ratio stood at 0.992 ± 0.011.

Regarding TTCTATGCAT, the switch fluorescence ratio turned out to be 1.14 ± 0.13.

On to GGCACAGGGG, for which the switch fluorescence ratio turned out to be 1.91 ± 0.17.

In the case of TTTCCGGCGT, the switch fluorescence ratio worked out at 1.03 ± 0.023.

As to GTGATCAAGC, the switch fluorescence ratio came out at 0.984 ± 0.028.

Regarding ATTATGGTGG, the switch fluorescence ratio turned out to be 1.16 ± 0.26.

Consider TATTAACTAG, for which the switch fluorescence ratio stood at 1.02 ± 0.0022.

On to GATTTGTTTG, for which the switch fluorescence ratio came to 0.985 ± 0.026.

With ATGGGTGAAA, the switch fluorescence ratio was found to be 0.9867 ± 0.0084.

For GGGCCCTAAT, the switch fluorescence ratio stood at 0.982 ± 0.03.

For TTTTATGGCT, the switch fluorescence ratio was 0.982 ± 0.04.

GAGGCTTAAG: the switch fluorescence ratio is 1.01 ± 0.019.

With GGGTGCACGG, the switch fluorescence ratio was 1.01 ± 0.021.

As for TTTTTTGTAA, the switch fluorescence ratio turned out to be 1.01 ± 0.036.

TAGCAACGCA: the switch fluorescence ratio is 1.03 ± 0.015.

Take TTATTCGCAA: the switch fluorescence ratio is 4.457 ± 0.044.

Consider ATGTAACTGT, for which the switch fluorescence ratio was found to be 0.976 ± 0.033.

In the case of ATCGTCGTGC, the switch fluorescence ratio amounted to 0.975 ± 0.015.

Regarding TTTTTAATTC, the switch fluorescence ratio turned out to be 1.03 ± 0.024.

Take CGTTAATACT: the switch fluorescence ratio worked out at 2.98 ± 0.045.

In the case of AGGTTCATTG, the switch fluorescence ratio came out at 0.975 ± 0.021.

Consider CATTTATTGT, for which the switch fluorescence ratio turned out to be 0.992 ± 0.018.

Consider ATCATTAGAA, for which the switch fluorescence ratio was 0.976 ± 0.031.

As to AATCCGACGA, the switch fluorescence ratio came to 1.66 ± 0.17.

AATAGGATAG: the switch fluorescence ratio stood at 1.02 ± 0.011.

For the sequence TCGGGCAGGT, the switch fluorescence ratio was found to be 1.06 ± 0.064.

Consider AGCTAAAGGC, for which the switch fluorescence ratio turned out to be 1.03 ± 0.032.

As for TTGAGAATT, the switch fluorescence ratio amounted to 1.02 ± 0.051.

Turning to CCTATTGTGG, the switch fluorescence ratio came to 0.993 ± 0.015.

Regarding GCTAGGGGTT, the switch fluorescence ratio amounted to 1.13 ± 0.25.

Consider TTACTATTTT, for which the switch fluorescence ratio came to 1.03 ± 0.023.

Consider GAACTCCGGG, for which the switch fluorescence ratio was 1.1 ± 0.054.

For GGAAAATAGT, the switch fluorescence ratio was found to be 1.02 ± 0.047.

Turning to GTGATGTTGT, the switch fluorescence ratio stood at 0.977 ± 0.037.

Take GTAGGAGGTG: the switch fluorescence ratio came to 1.07 ± 0.019.

On to TAGCCGGTTC, for which the switch fluorescence ratio turned out to be 1.026 ± 0.01.

As to ACAGGGGGCC, the switch fluorescence ratio came to 1.08 ± 0.12.

On to GTTGAATCAT, for which the switch fluorescence ratio was 0.992 ± 0.017.

Take CTCAATGACT: the switch fluorescence ratio stood at 1.02 ± 0.016.

Consider AGTGTAGAGC, for which the switch fluorescence ratio is 0.975 ± 0.017.

As for AAAGTCTCGT, the switch fluorescence ratio stood at 0.972 ± 0.018.

For TTGCCTCGTT, the switch fluorescence ratio amounted to 1.05 ± 0.023.

On to GGTTAGTAGG, for which the switch fluorescence ratio came to 0.986 ± 0.021.

For the sequence CGGGGTAATG, the switch fluorescence ratio was found to be 0.979 ± 0.012.

In the case of CGCCCTTGGC, the switch fluorescence ratio came to 1.07 ± 0.036.

Turning to GGCGGGGGCT, the switch fluorescence ratio came to 0.99 ± 0.018.

On to TTGTAGGGAG, for which the switch fluorescence ratio was determined as 1 ± 0.027.

As for AAATTGGTTG, the switch fluorescence ratio came out at 0.976 ± 0.014.

Turning to CGTGACTAAA, the switch fluorescence ratio was found to be 0.9893 ± 0.0079.

With GGTATGGAGT, the switch fluorescence ratio is 1.013 ± 0.0057.

As to GATACCTATG, the switch fluorescence ratio stood at 1.03 ± 0.027.

Regarding CTTTGCATTA, the switch fluorescence ratio stood at 1.7035 ± 0.00023.

For TTGTAGTTTT, the switch fluorescence ratio was found to be 1.01 ± 0.038.

For CGGGGTGAGG, the switch fluorescence ratio was 0.997 ± 0.014.

In the case of TGGGCGAATC, the switch fluorescence ratio stood at 0.998 ± 0.014.

For GAAACTTGAC, the switch fluorescence ratio amounted to 1.61 ± 0.039.

CGTATCAAAC: the switch fluorescence ratio stood at 1.23 ± 0.049.

In the case of TTTCAGTCGG, the switch fluorescence ratio came out at 1.006 ± 0.0037.

Consider CCGACTAAAA, for which the switch fluorescence ratio was found to be 4.27 ± 0.41.

For AATTGGGGTC, the switch fluorescence ratio is 0.967 ± 0.031.

With GTACGACAAG, the switch fluorescence ratio came out at 1.11 ± 0.042.

As to CGGGTGTTCG, the switch fluorescence ratio turned out to be 1.02 ± 0.075.

On to CTCATAACAT, for which the switch fluorescence ratio turned out to be 1.01 ± 0.032.

As to TATTAGGGGG, the switch fluorescence ratio came to 0.984 ± 0.048.

In the case of CATTTCAAGG, the switch fluorescence ratio came to 1 ± 0.043.

Regarding AGGGTTTGGA, the switch fluorescence ratio came out at 1 ± 0.02.

TCGTGGGGGT: the switch fluorescence ratio turned out to be 0.979 ± 0.045.

TTGCCTGAAA: the switch fluorescence ratio was found to be 1 ± 0.019.

TAGCGCTGGT: the switch fluorescence ratio came out at 1.01 ± 0.02.

As for TTCGTTTTCT, the switch fluorescence ratio is 1 ± 0.039.

On to GGATGATGA, for which the switch fluorescence ratio stood at 1.01 ± 0.061.

TTCAGTTTTA: the switch fluorescence ratio was found to be 1.017 ± 0.0035.

Consider TAATGCTGTT, for which the switch fluorescence ratio was determined as 0.997 ± 0.049.

For the sequence GATACCATGG, the switch fluorescence ratio was 0.985 ± 0.03.

Turning to GCACGCAACT, the switch fluorescence ratio came out at 1.32 ± 0.013.

Turning to CGTTGTGACT, the switch fluorescence ratio was 0.998 ± 0.021.

As to GTGTTAGGGA, the switch fluorescence ratio worked out at 1.01 ± 0.015.

Regarding ATTAAGCAAG, the switch fluorescence ratio stood at 1.04 ± 0.015.

In the case of CGGTCTCCGG, the switch fluorescence ratio came out at 1.03 ± 0.012.

For the sequence GGGGGTCCCT, the switch fluorescence ratio worked out at 1.01 ± 0.015.

Regarding ATATATGGTT, the switch fluorescence ratio stood at 0.988 ± 0.036.

Turning to TAGTGGTGGA, the switch fluorescence ratio was found to be 0.9979 ± 0.009.

Consider TGATGCTTTT, for which the switch fluorescence ratio came out at 1.01 ± 0.035.

For the sequence TATCTGGGTA, the switch fluorescence ratio was found to be 0.978 ± 0.01.

Take CTGTGTGCAG: the switch fluorescence ratio stood at 1.01 ± 0.034.

Regarding AACGGGGGTG, the switch fluorescence ratio came out at 1.01 ± 0.045.

In the case of GGGGGACTAG, the switch fluorescence ratio was found to be 1.02 ± 0.024.

AGGGGAATGG: the switch fluorescence ratio stood at 0.997 ± 0.015.

In the case of CCGTAATGGG, the switch fluorescence ratio stood at 1.85 ± 0.038.

On to GAGCGGATTT, for which the switch fluorescence ratio was 1.03 ± 0.019.

As to AAATTTAGCT, the switch fluorescence ratio came out at 1.0313 ± 0.0006.

On to TTAGCGAGGT, for which the switch fluorescence ratio stood at 1.02 ± 0.032.

As for CTTATAGCTT, the switch fluorescence ratio came out at 0.987 ± 0.033.

On to CGTCAAATAT, for which the switch fluorescence ratio is 1.13 ± 0.041.

Consider TTCAGCTCTA, for which the switch fluorescence ratio worked out at 0.993 ± 0.028.

On to CGGGGGGCCG, for which the switch fluorescence ratio was 0.995 ± 0.01.

Turning to AGAAAAAAAG, the switch fluorescence ratio amounted to 1.02 ± 0.03.

Consider CAGACGGGGG, for which the switch fluorescence ratio was 1.01 ± 0.026.

ACATCGTCAT: the switch fluorescence ratio came out at 1.01 ± 0.02.

In the case of CGGGACATGA, the switch fluorescence ratio is 1.01 ± 0.012.

For GGATTGTAGG, the switch fluorescence ratio was found to be 0.9738 ± 0.0053.
